Data as given in US6596319B2, “Immunomodulating compositions for treatment of immune system disorders” (Lorus Therapeutics Inc., priority 2001, dated 2003).
Read-outs that look alike come from different tables or passages of the source.

Columns and labels:
Chang hepatoma cells [1] = assay: Monocyte/Macrophage Cytotoxicity Assay to cell line (51Cr release); details: peripheral blood monocytes from cancer patients; activator + Indomethacin (up to 5 ng/ml)
peritoneal macrophages [2] = assay: In vitro stimulation of protease peptone peritoneal macrophages: NO (Greiss reagent); assay type: cell-based, C57BL/6 mice; details: stimulant alone
Description: (§1) Peritoneal macrophages were harvested from C57BL/6 mice 72 hours after intraperitoneal injection of 1.5 ml of 4% protease peptone. The macrophages were then stimulated in vitro with medium alone, 50 ng LPS, or VIRULIZIN™. Measurements of the stimulation was done with respect to TNF (by ELISA) and NO (by spectrophotometric assay using the Greiss reagent) levels in duplicate experiments. Standard error of the mean between duplicate experiments was less than 10%. […] Nitric oxide production was zero.
In vitro synergy of Virulizin™ with LPS for nitric oxide (NO) was addressed in the same procedure as above, except NO was determined in the supernatant of the treated macrophages. As above, the assay for NO is spectrophotometric and uses a Greiss reagent. As noted in the table above, LPS causes some release of NO (9 μm). VIRULIZIN™ in synergy with LPS induces a marked increase in NO production (13-27 μm) to dilutions of 1:40.
In vitro synergy of Virulizin™ with IFN-γ for NO release was studied, using the same peritoneal mouse macrophages derived from C57BL/6 mice treated as above. The data are included in the table above concerning “Synergistic Combinations.” As shown, LPS and IFN-γ alone each enhanced NO production (9 and 7 μm, respectively). VIRULIZIN™ added to IFN-γ induced a marked increase in NO production (47-57 μm) that almost equaled the combination of LPS and IFN-γ (74 μM). […]

peritoneal macrophages [3] = assay: TNF release from macrophages harvested from treated mice; assay type: in vivo, C57BL/6 mice; details: mice injected with nothing; in vitro stimulant IFN-γ, 24 hours
Description: (§2) In vivo production of TNF-α over 72 hours was studied on macrophages harvested from C57BL/6 mice that, prior to harvest, were treated with nothing, injected intraperitoneally 72 hours previously with 1.5 and 4% protease peptone, or injected intraperitoneally 72, 48, or 24 hours previously with 1.0 ml Virulizin™ diluted 1:10 in PBS. The macrophage monolayers were treated in vitro for 24 hours with IFN-γ (50 μ/ml), LPS only (5 ng/ml), or the combination thereof. TNF and NO were determined as recited above.
As described, the release of TNF-α from macrophages was examined in the absence of a stimulus or with IFN-γ, LPS, or LPS/IFN-γ after 24 hrs in vitro culture. […] Likewise, there was a synergistic effect of LPS and IFN-γ on harvested macrophages that were stimulated 24 and 48 hrs but not 72 hrs before testing.

peritoneal macrophages [4] = assay: NO release from macrophages harvested from treated mice; assay type: in vivo, C57BL/6 mice; details: mice injected with nothing; in vitro stimulant IFN-γ
Description: as §2
In vivo production of NO over 72 hrs was studied with macrophage cells and tests under the same conditions described above with respect to TNF-α production. There was a small spontaneous release of NO measured at 24 and 48 hrs after intraperitoneal injection of VIRULIZIN™ (hereinafter IP Virulizin™). […] The harvested macrophages that had received IP VIRULIZIN™ 72 hrs before responded no differently than macrophages that had no VIRULIZIN™ pretreatment. […] The maximum response was with macrophages pretreated with VIRULIZIN™ 48 hrs before harvesting and testing.

peritoneal macrophages [5] = assay: In vitro stimulation of protease peptone peritoneal macrophages: TNF (ELISA); assay type: cell-based, C57BL/6 mice; details: stimulant alone; 24 hours of in vitro culture
Description: as §1
In vitro synergy of Virulizin™ with LPS for TNF-α release was also addressed. Peritoneal macrophages were harvested from C57BL/6 mice after the same aforementioned treatment. The macrophages were then stimulated with 50 ng LPS alone or LPS with different dilutions of VIRULIZIN™. As above, TNF was determined via ELISA. As noted in Table XIX, LPS alone induces about 2900 pg/ml of TNF-α release from mouse peritoneal macrophages in vitro compared to 262 pg/ml for medium. When LPS is combined with VIRULIZIN™, there is about an 800 pg/ml increase in TNF-alpha release at dilutions of VIRULIZIN™ 1:5 and 1:10 and enhanced release to at least 1:40.
In vitro synergy of Virulizin™ with IFN-γ for TNF-α release was studied, using the same peritoneal mouse macrophages derived from C57BL/6 mice treated as above. […] The same macrophages stimulated with either LPS or IFN-γ release almost 3000 pg/ml of TNF-α. […]

Chang hepatoma cells [6] = tested on: Chang hepatoma cells

## GM-CSF: granulocyte macrophage colony stimulating factor
Chang hepatoma cells [1]
  % Cytotoxicity: 17.8 ± 8%

## IFN-γ: gamma interferon
Peritoneal macrophages [2]
  NO production: 7 μm
Peritoneal macrophages [3]
  TNF: 402 pg/mL
Peritoneal macrophages [4]
  NO: 25.8 ± 1.6 µM
Peritoneal macrophages [5]
  TNF-α release: ~3000 pg/mL

## Interleukin-12: interleukin-12
Autologous tumor cells
  % Tumor Cytotoxicity (E/T = 15/1): 11%

B1: Monocyte-CSF: monocyte colony stimulating factor (protein, UniProt P09603 33-554, looked up)
Macrophage colony-stimulating …: EEVSEYCSHMIGSGHLQSLQRLIDSQMETSCQITFEFVDQEQLKDPVCYLKKAFLLVQDIMEDTMRFRDNTPNAIAIVQLQELSLRLKSCFTKDYEEHDKACVRTFYETPLQLLEKVKNVFNETKNLLDKDWNIFSKNCNNSFAECSSQDVVTKPDCNCLYPKAIPSSDPASVSPHQPLAPSMAPVAGLTWEDSEGTEGSSLLPGEQPLHTVDPGSAKQRPPRSTCQSFEPPETPVVKDSTIGGSPQPRPSVGAFNPGMEDILDSAMGTNWVPEEASGEASEIPVPQGTELSPSRPGGGSMQTEPARPSNFLSASSPLPASAKGQQPADVTGTALPRVGPVRPTGQDWNHTPQKTDHPSALLRDPPEPGSPRISSLRPQGLSNPSTLSAQPQLSRSHSSGSVLPLGELEGRRSTRDRRSPAEPEGGPASEGAARPLPRFNSVPLTDTGHERQSEGSFSPQLQESVFHLLVPSVILVLLAVGGLLFYRWRRRSHQEPQRADSPLEQPEGSPLTQDDRQVELPV
Autologous tumor cells
  % Tumor Cytotoxicity (E/T = 15/1): 3%
Chang hepatoma cells [6]
  % Cytotoxicity: 14.31 ± 3%
